# Substitutions are numbered along the chain they refer to. Names may count otherwise.
# T1: VEGF121 (human, UniProt P15692 27-147)
# T1 construct: mature; Immobilized on the biosensor chip via primary amino groups; also called Purified VEGF121
# T1 sequence (looked up): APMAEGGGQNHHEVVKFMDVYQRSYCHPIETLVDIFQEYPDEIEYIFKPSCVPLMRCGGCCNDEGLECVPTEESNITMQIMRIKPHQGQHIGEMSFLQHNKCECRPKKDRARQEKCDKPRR
# B1: Y0238-1 (Fab, V domains shown)
# VH: EVQLVESGGGLVQPGGSLRLSCAASGYTFTNYGINWVRQAPGKGLEWVGWINTYTGEPTYAADFKRRFTFSLDTSKSTAYLQMNSLRAEDTAVYYCAKYPYYRGTSHWYFDVWGQGTL
# VL: DIQLTQSPSSLSASVGDRVTITCRANEQLSNYLNWYQQKPGKAPKVLIYFTSSLHSGVPSRFSGSGSGTDFTLTISSLQPEDFATYYCQQYSTVPWTFGQGTKVEIKR
# notes: From library YC-81 on the pY0192 template; Soluble Fab
# B2: pY0192 VL S53A (Fab, V domains shown)
# VH: B1 VH with Y101H, R103Y, T105S
# VL: B1 VL with S53A
# notes: Ala-scan variant of pY0192; Fab on phage
# B3: pY0192 VL N31A (Fab, V domains shown)
# VH: B1 VH with Y101H, R103Y, T105S
# VL: B1 VL with N31A
# notes: Ala-scan variant of pY0192; Fab on phage; also called N31A (VL)
# B4: pY0192 VL T97A (Fab, V domains shown)
# VH: B1 VH with Y101H, R103Y, T105S
# VL: B1 VL with T97A
# notes: as for B2
# B5: pY0192 VL P95A (Fab, V domains shown)
# VH: B1 VH with Y101H, R103Y, T105S
# VL: B1 VL with P95A
# notes: as for B2
# B6: pY0192 VL Y32A (Fab, V domains shown)
# VH: B1 VH with Y101H, R103Y, T105S
# VL: B1 VL with Y32A
# notes: Ala-scan variant of pY0192; Fab on phage; also called Y32A (VL)
# B7: pY0192 VL S56A (Fab, V domains shown)
# VH: B1 VH with Y101H, R103Y, T105S
# VL: B1 VL with S56A
# notes: as for B2
# B8: Y0238-10 (Fab, V domains shown)
# VH: B1 VH with G104N
# VL: B1 VL
# notes: as for B1
# B9: pY0192 VL N34A (Fab, V domains shown)
# VH: B1 VH with Y101H, R103Y, T105S
# VL: B1 VL with N34A
# notes: as for B2
# B10: pY0192 VL T51A (Fab, V domains shown)
# VH: B1 VH with Y101H, R103Y, T105S
# VL: B1 VL with T51A
# notes: as for B2
# B11: Y0244-4 (Fab, V domains shown)
# VH: B1 VH with L72I, T74K, Y101H, R103Y, T105S
# VL: B1 VL
# notes: Soluble Fab
# B12: pY0192 VL Q90A (Fab, V domains shown)
# VH: B1 VH with Y101H, R103Y, T105S
# VL: B1 VL with Q90A
# notes: as for B2
# B13: pY0192 VL Y91A (Fab, V domains shown)
# VH: B1 VH with Y101H, R103Y, T105S
# VL: B1 VL with Y91A
# notes: as for B2
# B14: pY0192 VL V94A (Fab, V domains shown)
# VH: B1 VH with Y101H, R103Y, T105S
# VL: B1 VL with V94A
# notes: as for B2
# B15: Y0238-5 (Fab, V domains shown)
# VH: B1 VH with R103I, G104A, T105K
# VL: B1 VL
# notes: as for B1
# B16: pY0192 VL S30A (Fab, V domains shown)
# VH: B1 VH with Y101H, R103Y, T105S
# VL: B1 VL with S30A
# notes: as for B2
# B17: pY0192 VL Q28A (Fab, V domains shown)
# VH: B1 VH with Y101H, R103Y, T105S
# VL: B1 VL with Q28A
# notes: as for B2
# B18: Y0243-1 (Fab, V domains shown)
# VH: B1 VH with T28D, N31H, I34M, Y101H, R103Y, T105S
# VL: B1 VL
# notes: Soluble Fab
# B19: Y0313-3 (Fab, V domains shown)
# VH: B1 VH with R103Y, T105S
# VL: B1 VL
# notes: Soluble Fab
# B20: pY0192 VL S52A (Fab, V domains shown)
# VH: B1 VH with Y101H, R103Y, T105S
# VL: B1 VL with S52A
# notes: as for B2
# B21: pY0192 VL Q89A (Fab, V domains shown)
# VH: B1 VH with Y101H, R103Y, T105S
# VL: B1 VL with Q89A
# notes: as for B2
# B22: pY0192 VL S92A (Fab, V domains shown)
# VH: B1 VH with Y101H, R103Y, T105S
# VL: B1 VL with S92A
# notes: as for B2
# B23: Y0244-1 (Fab, V domains shown)
# VH: B1 VH with L72V, T74V, Y101H, R103Y, T105S
# VL: B1 VL
# notes: Soluble Fab
# B24: pY0192 VL R24A (Fab, V domains shown)
# VH: B1 VH with Y101H, R103Y, T105S
# VL: B1 VL with R24A
# notes: as for B2
# B25: pY0192 VL T93A (Fab, V domains shown)
# VH: B1 VH with Y101H, R103Y, T105S
# VL: B1 VL with T93A
# notes: as for B2
# B26: hu2.1 (Fab, name in Kabat numbering, V domains shown)
# VH: EVQLVESGGGLVQPGGSLRLSCAASGYTFTNYGMNWIRQAPGKGLEWVGWINTYTGEPTYAADFKRRFTISRDNSKNTVYLQMNSLRAEDTAVYYCAKYPHYYGSSHWYFDVWGQGTLVTVSS
# VL: DIQMTQSPSSLSASVGDRVTITCSASQDISNYLNWYQQKPGKAPKLLIYFTSSLHSGVPSRFSGSGSGTDYTLTISSLQPEDFATYYCQQYSTVPWTFGQGTKVEIK
# notes: soluble Fab with human constant domains
# B27: hu2.6 (Fab, name in Kabat numbering, V domains shown)
# VH: B26 VH with F68T, R72L, N74T, K76A, N77S
# VL: B26 VL with M4L, Y71F
# notes: as for B26
# B28: hu2.10 (Fab, V domains shown)
# VH: B26 VH with R72L, N74T, K76A, N77S
# VL: B26 VL
# notes: Soluble Fab with human constant domains; also called consensus clone hu2.10
# B29: hu2.2 (Fab, name in Kabat numbering, V domains shown)
# VH: B26 VH
# VL: B26 VL with M4L
# notes: as for B26
# B30: hu2.10V (Fab, V domains shown)
# VH: B26 VH with R72L, N74T, K76A, N77S
# VL: B26 VL with L46V
# notes: Soluble Fab with human constant domains; also called hu2.10 with mutation VL Leu->Val
# B31: hu2.7 (Fab, name in Kabat numbering, V domains shown)
# VH: B26 VH
# VL: B26 VL with M4L, Y71F
# notes: as for B26
# How the values were obtained:
# VEGF [1] = biological target: T2, VEGF (human, UniProt P15692-4 27-191, limits assumed); experiment: BIAcore-2000 SPR, relative to Y0192
# T2 construct: Biotinylated in the KDR-IgG ELISA, amine-coupled to the chip in BIAcore; also called biotinylated VEGF; vascular endothelial growth factor
# Experimental: (§1) BIAcore Analysis: The VEGF-binding affinities of Fab fragments were calculated from association and dissociation rate constants measured using a BIAcore-2000™ surface plasmon resonance system (BIAcore, Inc., Piscataway, N.J.). A biosensor chip was activated for covalent coupling of VEGF using N-ethyl-N′-(3-dimethylaminopropyl)-carbodiimide hydrochloride (EDC) and N-hydroxysuccinimide (NHS) according to the supplier's (BIAcore, Inc., Piscataway, N.J.) instructions. VEGF was buffered exchanged into 20 mM sodium acetate, pH 4.8 and diluted to approximately 50 μg/mL. An aliquot (35 μL) was injected at a flow rate of 2 μL/min to achieve approximately 700-1400 response units (RU) of coupled protein. Finally, 1 M ethanolamine was injected as a blocking agent.
# (§2) For kinetics measurements, two-fold serial dilutions of Fab were injected in PBS/TWEEN™ buffer (0.05% TWEEN 20™ in phosphate buffered saline) at 25° C. at a flow rate of 10 μL/min. […] Equilibrium dissociation constants, Kd's from surface plasmon resonance (SPR) measurements were calculated as koff/kon.
# Target sequence in this assay (P15692 other isoform, or with tags, fused parts or gaps limits assumed): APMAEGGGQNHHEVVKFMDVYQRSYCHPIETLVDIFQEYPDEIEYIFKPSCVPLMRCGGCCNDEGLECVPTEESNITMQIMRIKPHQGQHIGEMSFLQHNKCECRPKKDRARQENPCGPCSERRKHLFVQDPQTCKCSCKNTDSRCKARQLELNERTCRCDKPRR
# VEGF [2] = biological target: T2, VEGF; experiment: BIAcore-2000 SPR, Fab over immobilized VEGF, 25 C
# Experimental: as §1, §2
# VEGF [3] = biological target: T2, VEGF; experiment: competitive phage-ELISA, relative to pY0192
# Target sequence in this assay (P15692 other isoform, or with tags, fused parts or gaps limits assumed): as above
# VEGF121 = biological target: T1, VEGF121; experiment: BIAcore SPR, Fab over immobilized VEGF121
# Experimental: VEGF₁₂₁ was covalently immobilized on the biosensorchip via primary amino groups. Binding of humanized A4.6.1 Fab variants was measured by flowing solutions of Fab in PBS/0.05% TWEEN 20™ over the chip at a flow rate of 20 μL/min. Following each binding measurement, residual Fab was stripped from the immobilized ligand by washing with 5 μL of 50 mM aqueous HCl at 3 μL/min. Binding profiles were analyzed by nonlinear regression using a simple monovalent binding model (BIAevaluation software v2.0; Pharmacia).
binder,measurement,setting,value
B1,Kd (wt)/Kd (mut),VEGF [1],7.3 ratio
same,Kd,VEGF [2],0.4 nM
same,koff,VEGF [2],9e-06 s⁻¹
same,kon,VEGF [2],26000 M⁻¹ s⁻¹
B2,IC50 (mut)/IC50 (wt),VEGF [3],1 ratio
B3,IC50 (mut)/IC50 (wt),VEGF [3],2 ratio
B4,IC50 (mut)/IC50 (wt),VEGF [3],1 ratio
B5,IC50 (mut)/IC50 (wt),VEGF [3],3 ratio
B6,IC50 (mut)/IC50 (wt),VEGF [3],2 ratio
B7,IC50 (mut)/IC50 (wt),VEGF [3],1 ratio
B8,Kd (wt)/Kd (mut),VEGF [1],4.8 ratio
same,Kd,VEGF [2],0.6 nM
same,koff,VEGF [2],9e-06 s⁻¹
same,kon,VEGF [2],16000 M⁻¹ s⁻¹
B9,IC50 (mut)/IC50 (wt),VEGF [3],4 ratio
B10,IC50 (mut)/IC50 (wt),VEGF [3],1 ratio
B11,Kd (wt)/Kd (mut),VEGF [1],0.9 ratio
same,Kd,VEGF [2],3.3 nM
same,koff,VEGF [2],0.00017 s⁻¹
same,kon,VEGF [2],52000 M⁻¹ s⁻¹
B12,IC50 (mut)/IC50 (wt),VEGF [3],3 ratio
B13,IC50 (mut)/IC50 (wt),VEGF [3],14 ratio
B14,IC50 (mut)/IC50 (wt),VEGF [3],2 ratio
B15,Kd (wt)/Kd (mut),VEGF [1],3.2 ratio
same,Kd,VEGF [2],0.9 nM
same,koff,VEGF [2],8e-06 s⁻¹
same,kon,VEGF [2],8000 M⁻¹ s⁻¹
B16,IC50 (mut)/IC50 (wt),VEGF [3],2 ratio
B17,IC50 (mut)/IC50 (wt),VEGF [3],1 ratio
B18,Kd (wt)/Kd (mut),VEGF [1],4.1 ratio
same,Kd,VEGF [2],0.7 nM
same,koff,VEGF [2],4.5e-05 s⁻¹
same,kon,VEGF [2],67000 M⁻¹ s⁻¹
B19,Kd (wt)/Kd (mut),VEGF [1],4.5 ratio
same,Kd,VEGF [2],0.65 nM
same,koff,VEGF [2],8.1e-06 s⁻¹
same,kon,VEGF [2],12000 M⁻¹ s⁻¹
B20,IC50 (mut)/IC50 (wt),VEGF [3],1 ratio
B21,IC50 (mut)/IC50 (wt),VEGF [3],4 ratio
B22,IC50 (mut)/IC50 (wt),VEGF [3],1 ratio
B23,Kd (wt)/Kd (mut),VEGF [1],3.6 ratio
same,Kd,VEGF [2],8 nM
same,koff,VEGF [2],0.00027 s⁻¹
same,kon,VEGF [2],34000 M⁻¹ s⁻¹
B24,IC50 (mut)/IC50 (wt),VEGF [3],1 ratio
B25,IC50 (mut)/IC50 (wt),VEGF [3],1 ratio
B26,KD(A4.6.1)/KD(mut) as headed (values read as KD(mut)/KD(A4.6.1)),VEGF121,170 ratio
same,Kd,VEGF121,260 nM
same,koff,VEGF121,0.0018 s⁻¹
same,kon,VEGF121,7000 M⁻¹ s⁻¹
B27,KD(A4.6.1)/KD(mut) as headed (values read as KD(mut)/KD(A4.6.1)),VEGF121,40 ratio
same,Kd,VEGF121,67 nM
same,koff,VEGF121,0.00045 s⁻¹
same,kon,VEGF121,6700 M⁻¹ s⁻¹
B28,KD(A4.6.1)/KD(mut) as headed (values read as KD(mut)/KD(A4.6.1)),VEGF121,35 ratio
same,Kd,VEGF121,55 nM
same,fold tighter KD than hu2.0,VEGF121,≥ 125 fold
same,koff,VEGF121,0.00035 s⁻¹
same,kon,VEGF121,6300 M⁻¹ s⁻¹
B29,KD(A4.6.1)/KD(mut) as headed (values read as KD(mut)/KD(A4.6.1)),VEGF121,210 ratio
same,Kd,VEGF121,340 nM
same,koff,VEGF121,0.0016 s⁻¹
same,kon,VEGF121,4700 M⁻¹ s⁻¹
B30,KD(A4.6.1)/KD(mut) as headed (values read as KD(mut)/KD(A4.6.1)),VEGF121,5.8 ratio
same,Kd,VEGF121,9.3 nM
same,fold improvement in KD vs hu2.10,VEGF121,6 fold
same,koff,VEGF121,0.00018 s⁻¹
same,kon,VEGF121,20000 M⁻¹ s⁻¹
B31,KD(A4.6.1)/KD(mut) as headed (values read as KD(mut)/KD(A4.6.1)),VEGF121,230 ratio
same,Kd,VEGF121,360 nM
same,koff,VEGF121,0.0024 s⁻¹
same,kon,VEGF121,6700 M⁻¹ s⁻¹
